US20160115200A1, “New Use for JNK Inhibitor Molecules for Treatment of Various Diseases” (XIGEN INFLAMMATION LTD., priority 2013, published 2016)

What was measured:
Test in all cases: kinase inhibition
[1] = target: His-JNK1 (ref 14-327, Upstate) (UniProt P45983)
[2] = target: His-JNK2 (ref 14-329, Upstate) (UniProt P45984)
[3] = target: His-JNK3 (ref 14-501, Upstate) (UniProt P53779)
Sequence of His-JNK3 (ref 14-501, Upstate) (P53779 other isoform, or with tags, fused parts or gaps): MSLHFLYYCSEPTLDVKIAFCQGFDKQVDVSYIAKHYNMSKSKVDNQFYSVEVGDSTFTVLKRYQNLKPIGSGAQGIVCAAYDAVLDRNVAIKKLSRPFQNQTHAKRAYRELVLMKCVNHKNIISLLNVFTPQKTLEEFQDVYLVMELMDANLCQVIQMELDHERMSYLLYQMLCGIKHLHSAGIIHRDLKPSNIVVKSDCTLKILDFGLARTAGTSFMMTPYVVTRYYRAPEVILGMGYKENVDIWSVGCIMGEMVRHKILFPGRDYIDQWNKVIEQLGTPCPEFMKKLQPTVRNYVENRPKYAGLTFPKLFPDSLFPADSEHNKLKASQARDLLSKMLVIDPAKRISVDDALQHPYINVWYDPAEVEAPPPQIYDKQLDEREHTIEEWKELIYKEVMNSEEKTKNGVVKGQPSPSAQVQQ

Sequence of His-JNK1 (ref 14-327, Upstate) (P45983 other isoform, or with tags, fused parts or gaps): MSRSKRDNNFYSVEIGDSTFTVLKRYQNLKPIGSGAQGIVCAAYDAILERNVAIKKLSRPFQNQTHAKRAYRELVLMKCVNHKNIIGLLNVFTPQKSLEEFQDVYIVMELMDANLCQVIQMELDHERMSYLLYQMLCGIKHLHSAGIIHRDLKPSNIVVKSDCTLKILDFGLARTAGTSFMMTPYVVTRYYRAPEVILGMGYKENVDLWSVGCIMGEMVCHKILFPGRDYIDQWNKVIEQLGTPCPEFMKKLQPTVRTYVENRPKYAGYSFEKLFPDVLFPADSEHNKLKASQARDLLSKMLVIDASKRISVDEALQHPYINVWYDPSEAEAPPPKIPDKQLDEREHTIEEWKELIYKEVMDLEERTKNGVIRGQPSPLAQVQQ

For D-TAT-IB1, the IC50 [1] was 24400 nM, the IC50 [2] was 802 nM and the IC50 [3] was 1290 nM.
